From patent publication US20210395392A1 (Bristol-Myers Squibb, published 2021)

Legend:
[1] = biological target: T1, Recombinant soluble extracellular domain of human MerTK (human, UniProt Q12866 21-505); experiment: SPR, mAb captured, soluble MerTK ECD as analyte, 37 C
T1 construct: SPR analyte; also called hMerTK
T1 sequence: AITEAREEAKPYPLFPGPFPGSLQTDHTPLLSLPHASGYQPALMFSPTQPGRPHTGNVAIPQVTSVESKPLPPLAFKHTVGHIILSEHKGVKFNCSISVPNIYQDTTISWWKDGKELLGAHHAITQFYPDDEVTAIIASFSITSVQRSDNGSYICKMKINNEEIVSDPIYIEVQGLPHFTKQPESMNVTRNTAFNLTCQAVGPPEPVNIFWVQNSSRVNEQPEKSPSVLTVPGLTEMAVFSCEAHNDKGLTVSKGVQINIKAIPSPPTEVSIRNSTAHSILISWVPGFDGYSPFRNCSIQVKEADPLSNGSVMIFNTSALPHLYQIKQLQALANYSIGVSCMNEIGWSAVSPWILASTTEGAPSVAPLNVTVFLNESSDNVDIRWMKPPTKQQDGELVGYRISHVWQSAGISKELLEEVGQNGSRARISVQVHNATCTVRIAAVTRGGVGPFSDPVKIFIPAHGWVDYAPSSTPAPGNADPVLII
Method: (§1) MerTK Abs were captured on the chip. Recombinant soluble forms of the extracellular domains of human, cynomolgus monkey, and mouse MerTK polypeptide were injected as analytes at multiple concentrations each. The resulting sensorgrams were double-referenced and fitted to a 1:1 Langmuir binding model with mass transport.

[2] = biological target: T2, Recombinant soluble extracellular domain of cynomolgus monkey MerTK (cynomolgus monkey, UniProt Q12866 21-505 (human entry)); experiment: as above
T2 construct: SPR analyte; also called cMerTK; Cynomolgus MerTK
T2 chain: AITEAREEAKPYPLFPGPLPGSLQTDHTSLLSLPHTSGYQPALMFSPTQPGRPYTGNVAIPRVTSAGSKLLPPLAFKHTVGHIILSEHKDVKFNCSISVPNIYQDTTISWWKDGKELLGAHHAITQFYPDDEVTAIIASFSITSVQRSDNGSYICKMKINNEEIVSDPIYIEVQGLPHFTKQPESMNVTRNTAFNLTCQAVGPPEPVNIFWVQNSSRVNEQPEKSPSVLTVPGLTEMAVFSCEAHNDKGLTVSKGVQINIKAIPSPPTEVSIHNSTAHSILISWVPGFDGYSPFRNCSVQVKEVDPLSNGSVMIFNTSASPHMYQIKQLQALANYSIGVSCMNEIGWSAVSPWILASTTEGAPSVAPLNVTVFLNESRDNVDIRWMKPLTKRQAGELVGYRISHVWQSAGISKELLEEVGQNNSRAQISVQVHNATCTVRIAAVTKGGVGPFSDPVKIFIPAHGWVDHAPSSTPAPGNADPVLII
Method: as §1

[3] = biological target: T3, Human MerTK on hMerTK-expressing cells (human, UniProt Q12866 21-999); experiment: cell-based or functional assay
T3 sequence: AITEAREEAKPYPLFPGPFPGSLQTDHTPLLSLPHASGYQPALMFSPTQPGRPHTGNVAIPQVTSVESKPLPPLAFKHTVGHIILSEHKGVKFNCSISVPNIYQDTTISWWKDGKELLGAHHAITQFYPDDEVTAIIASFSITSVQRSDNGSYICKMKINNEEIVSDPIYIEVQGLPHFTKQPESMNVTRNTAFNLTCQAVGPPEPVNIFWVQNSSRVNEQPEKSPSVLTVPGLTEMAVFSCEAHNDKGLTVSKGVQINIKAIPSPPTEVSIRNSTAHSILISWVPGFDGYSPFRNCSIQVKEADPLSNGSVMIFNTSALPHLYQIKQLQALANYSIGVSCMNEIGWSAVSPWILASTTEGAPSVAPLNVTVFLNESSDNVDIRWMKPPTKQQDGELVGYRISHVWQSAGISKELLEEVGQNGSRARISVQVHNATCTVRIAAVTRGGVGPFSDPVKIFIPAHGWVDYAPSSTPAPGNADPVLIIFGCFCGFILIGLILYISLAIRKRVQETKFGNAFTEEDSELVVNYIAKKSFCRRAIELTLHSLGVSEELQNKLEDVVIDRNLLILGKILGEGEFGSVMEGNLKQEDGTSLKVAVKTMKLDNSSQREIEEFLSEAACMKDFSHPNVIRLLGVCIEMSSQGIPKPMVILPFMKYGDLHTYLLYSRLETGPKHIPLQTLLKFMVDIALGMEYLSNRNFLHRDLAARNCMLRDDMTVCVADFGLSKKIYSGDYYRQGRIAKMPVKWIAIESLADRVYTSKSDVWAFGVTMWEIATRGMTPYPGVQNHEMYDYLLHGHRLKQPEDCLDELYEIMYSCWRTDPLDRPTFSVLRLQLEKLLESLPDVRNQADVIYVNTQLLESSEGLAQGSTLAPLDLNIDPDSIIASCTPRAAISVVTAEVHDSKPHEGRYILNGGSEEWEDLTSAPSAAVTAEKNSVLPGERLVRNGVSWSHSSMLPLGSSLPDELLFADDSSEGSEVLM

[4] = biological target: T4, Recombinant soluble extracellular domain of mouse MerTK (mouse, UniProt Q60805 19-497); experiment: SPR, mAb captured, soluble MerTK ECD as analyte, 37 C
T4 construct: SPR analyte; also called mMerTK
T4 sequence: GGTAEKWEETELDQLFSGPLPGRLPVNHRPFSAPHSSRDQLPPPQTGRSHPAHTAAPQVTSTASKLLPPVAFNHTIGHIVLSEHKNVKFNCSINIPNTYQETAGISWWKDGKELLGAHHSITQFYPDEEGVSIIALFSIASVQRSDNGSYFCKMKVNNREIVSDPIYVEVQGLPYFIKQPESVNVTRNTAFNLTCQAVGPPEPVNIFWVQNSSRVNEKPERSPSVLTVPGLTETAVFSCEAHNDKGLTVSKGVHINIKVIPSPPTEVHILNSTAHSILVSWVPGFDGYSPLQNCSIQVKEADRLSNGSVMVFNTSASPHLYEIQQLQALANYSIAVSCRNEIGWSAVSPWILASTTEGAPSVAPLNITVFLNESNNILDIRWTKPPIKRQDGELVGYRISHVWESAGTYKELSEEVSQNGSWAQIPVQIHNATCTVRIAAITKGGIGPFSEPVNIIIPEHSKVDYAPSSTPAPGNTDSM
Method: as §1

[5] = biological target: T1, Recombinant soluble extracellular …; experiment: SPR, soluble MerTK ECD; format for mouse mAbs not detailed
[6] = biological target: T2, Recombinant soluble extracellular …; experiment: as above
[7] = biological target: T4, Recombinant soluble extracellular …; experiment: as above
[8] = biological target: T5, Mouse MerTK on mMerTK-expressing cells (mouse, UniProt Q60805 19-994); experiment: cell-based or functional assay
T5 sequence: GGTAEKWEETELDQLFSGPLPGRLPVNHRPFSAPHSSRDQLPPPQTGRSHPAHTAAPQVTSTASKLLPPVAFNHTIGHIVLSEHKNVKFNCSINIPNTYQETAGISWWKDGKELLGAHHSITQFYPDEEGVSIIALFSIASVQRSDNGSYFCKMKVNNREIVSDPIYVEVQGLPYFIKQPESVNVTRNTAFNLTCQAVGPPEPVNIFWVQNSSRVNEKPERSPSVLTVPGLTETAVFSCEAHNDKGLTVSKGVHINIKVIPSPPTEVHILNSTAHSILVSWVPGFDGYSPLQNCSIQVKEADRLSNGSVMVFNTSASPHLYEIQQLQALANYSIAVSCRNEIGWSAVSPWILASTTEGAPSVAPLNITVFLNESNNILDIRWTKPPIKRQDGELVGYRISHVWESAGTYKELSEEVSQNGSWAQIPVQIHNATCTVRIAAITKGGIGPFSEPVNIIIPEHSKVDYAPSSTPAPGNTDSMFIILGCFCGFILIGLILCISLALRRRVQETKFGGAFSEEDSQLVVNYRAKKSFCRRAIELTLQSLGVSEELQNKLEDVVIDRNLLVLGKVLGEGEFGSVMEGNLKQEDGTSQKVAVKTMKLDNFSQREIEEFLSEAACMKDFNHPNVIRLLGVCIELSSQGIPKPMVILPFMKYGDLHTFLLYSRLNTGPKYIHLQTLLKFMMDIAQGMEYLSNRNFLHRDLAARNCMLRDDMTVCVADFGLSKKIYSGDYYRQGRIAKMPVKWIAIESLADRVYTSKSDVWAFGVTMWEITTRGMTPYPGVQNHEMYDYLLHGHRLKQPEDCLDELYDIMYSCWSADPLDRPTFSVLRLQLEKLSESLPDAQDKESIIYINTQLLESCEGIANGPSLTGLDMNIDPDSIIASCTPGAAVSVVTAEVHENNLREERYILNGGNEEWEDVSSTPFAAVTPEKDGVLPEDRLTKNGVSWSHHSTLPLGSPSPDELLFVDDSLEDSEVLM

B1: HuMAb 10K11 (antibody, human IgG1, kappa, V domains shown)
VH: QLQLQESGPGLVKPSETLSLTCAVSGYSISSDYSWGWIRQPPGKGLEWIGSIYHSGNTYFNPSLKSRVTISVDTSKNQFSLKLSSVTAADTAVYYCARDKSYYFGPGSMDVWGQGTTVTVSS
VL: AIQLTQSPSSLSASVGDRVTITCRASQGISSALAWYQQKPGKAPKLLIYDASSLESGVPSRFSGSGSGTDFTLTISSLQPEDFATYYCQQFKSYLTFGQGTRLEIKR
notes: Human anti-hMerTK mAb, Bin 1
Kd [1]: 9 nM
koff [1]: 0.00117 s⁻¹
kon [1]: 132000 M⁻¹ s⁻¹
t1/2 [1]: 9.9 min
Kd [2]: 22.5 nM
koff [2]: 0.00235 s⁻¹
kon [2]: 108000 M⁻¹ s⁻¹
t1/2 [2]: 4.9 min
Inhibition of Efferocytosis IC50 [3]: 0.169 nM
Signaling Assay, hMerTK with Gas6, pSTAT1 IC50 (nM) [3]: 1.13 nM
Signaling Assay, hMerTK without Gas6, pSTAT1 IC50 (nM) [3]: > 100 nM

B2: Humanized mAb 4M60 (antibody, human IgG1, kappa, V domains shown)
VH: QVQLVQSGSELKKPGASVKVSCKASGNTFTTYGMSWVRQAPGQGLEWMGWINNYSGVSTYADDFKGRFVFSLDTSVSTAYLQISSLKAEDTAVYYCARDYYGSGGWVFDYWGQGTTVTVSS
VL: DVVMTQSPLSLPVTLGQPASISCKSSQSLLDSEGKTYLNWLQQRPGQSPRRLMYLVSKLDSGVPDRFSGSGSGTDFTLKISRVEAEDVGVYYCWQGTHFPRTFGGGTKVEIKR
notes: Humanized variant of moMAb 4E9, Bin 2
Kd [1]: 50.8 nM
koff [1]: 0.00134 s⁻¹
kon [1]: 26400 M⁻¹ s⁻¹
t1/2 [1]: 8.6 min
Kd [2]: 42.5 nM
koff [2]: 0.00137 s⁻¹
kon [2]: 32200 M⁻¹ s⁻¹
t1/2 [2]: 8.4 min
Kd [4]: 47.1 nM
koff [4]: 0.00249 s⁻¹
kon [4]: 52900 M⁻¹ s⁻¹
t1/2 [4]: 4.6 min
Signaling Assay, hMerTK with Gas6, pSTAT1 IC50 (nM) [3]: 8.88 nM

B3: MoMAb 4E9 (antibody, V domains shown)
VH: QIQLVQSGPELKKPGETVKISCKASGNTFTTYGMSWVKQAPGKNLKWMGWINNYSGVSTYADDFKGRFAFSLETSATTAYLQINNLTNEDSATYFCARDYYGSGGWVFDYWGQGTTLTVSS
VL: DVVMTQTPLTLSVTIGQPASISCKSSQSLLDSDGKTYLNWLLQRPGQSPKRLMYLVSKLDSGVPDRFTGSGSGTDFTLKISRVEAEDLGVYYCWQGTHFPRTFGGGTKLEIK
notes: Mouse mAb; Bin 2
koff [5]: 0.00114 s⁻¹
t1/2 [5]: 10.1 min
Kd [6]: 40 nM
koff [6]: 0.00112 s⁻¹
kon [6]: 28400 M⁻¹ s⁻¹
t1/2 [6]: 10.3 min
Kd [7]: 9.7 nM
koff [7]: 0.00133 s⁻¹
kon [7]: 137000 M⁻¹ s⁻¹
t1/2 [7]: 8.7 min
Signaling Assay, mMerTK with Gas6, pSTAT1 IC50 (nM) [8]: 1.86 nM
Inhibition of Efferocytosis IC50 [3]: 0.632 nM
Signaling Assay, hMerTK with Gas6, pSTAT1 IC50 (nM) [3]: 1.52 nM
Signaling Assay, hMerTK without Gas6, pSTAT1 IC50 (nM) [3]: > 100 nM

B4: MoMAb 2D9 (antibody, V domains shown)
VH: QVQLKESGPGLVAPSQSLSITCTVSGISLSSFAISWVRQPPGKGLEWLGVIWTGGGTDYNSALKSRLTISKDTSKNQVFLKMNSLQTDDTARYYCASHWYLDVWGTGTTVTVSS
VL: QAVVTQESALTTSPGETVTLTCRSSTGAVSTSNYANWVQEKPDHLFTGLIGGANSRAPGIPARFSGSLIGDKAALTITGAQTEDEAIYFCALWFSNHWVFGGGTKLTVL
notes: Mouse mAb; Bin 2
koff [5]: 0.00064 s⁻¹
t1/2 [5]: 18.2 min
Kd [6]: 12 nM
koff [6]: 0.00064 s⁻¹
kon [6]: 53300 M⁻¹ s⁻¹
t1/2 [6]: 18 min
Kd [7]: 3.2 nM
koff [7]: 0.000403 s⁻¹
kon [7]: 126000 M⁻¹ s⁻¹
t1/2 [7]: 28.7 min
Signaling Assay, mMerTK with Gas6, pSTAT1 IC50 (nM) [8]: 2.07 nM
Inhibition of Efferocytosis IC50 [3]: 0.528 nM
Signaling Assay, hMerTK with Gas6, pSTAT1 IC50 (nM) [3]: 1.44 nM
Signaling Assay, hMerTK without Gas6, pSTAT1 IC50 (nM) [3]: > 100 nM

B5: Humanized MAb 2L105 (antibody, human IgG1, lambda, V domains shown)
VH: QVTLKESGPVLVKPTETLTLTCTVSGISLSSFAISWIRQPPGKALEWLAVIWTGGGTDYNSALKSRLTISKDTSKSQVVLTMTNMDPVDTATYYCASHWYLDVWGQGTTVTVSS
VL: QTVVTQEPSFSVSPGGTVTLTCRSSTGAVSTSNYANWVQQTPGQAPRGLIGGANSRAPGIPDRFSGSILGNKAALTITGAQADDESDYYCALWFSNHWVFGGGTKLTVLG
notes: Humanized variant of moMAb 2D9, Bin 2
Kd [1]: 24.8 nM
koff [1]: 0.00146 s⁻¹
kon [1]: 58900 M⁻¹ s⁻¹
t1/2 [1]: 7.9 min
Kd [2]: 27 nM
koff [2]: 0.00151 s⁻¹
kon [2]: 55900 M⁻¹ s⁻¹
t1/2 [2]: 7.7 min
Kd [4]: 13.7 nM
koff [4]: 0.00123 s⁻¹
kon [4]: 89500 M⁻¹ s⁻¹
t1/2 [4]: 9.4 min
Signaling Assay, hMerTK with Gas6, pSTAT1 IC50 (nM) [3]: 1.37 nM
